{
  "source": "patent US20110091994A1",
  "about": "“Methods for Screening Compounds for Treating and/or Preventing an Hepatitis C Virus Infection” (priority 2008, published 2011);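 as to IMAP Y2H IMAP1 (number of IST): yeast two-hybrid screens using HCV genotype 1b proteins fused to Gal4-DB as baits against prey cDNA libraries from human spleen and foetal brain, IMAP1 via transformation and IMAP2 via mating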;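 as to Interaction with viral protein: yeast two-hybrid screens using HCV genotype 1b proteins fused to Gal4-DB as baits against prey cDNA libraries from human spleen and foetal brain, IMAP1 via transformation and IMAP2 via mating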",
  "molecules": {"B1": {"name": "SLIT2 (protein, UniProt O94813 31-1529, looked up)", "Slit homolog 2 protein": "QCSCSGSTVDCHGLALRSVPRNIPRNTERLDLNGNNITRITKTDFAGLRHLRVLQLMENKISTIERGAFQDLKELERLRLNRNHLQLFPELLFLGTAKLYRLDLSENQIQAIPRKAFRGAVDIKNLQLDYNQISCIEDGAFRALRDLEVLTLNNNNITRLSVASFNHMPKLRTFRLHSNNLYCDCHLAWLSDWLRQRPRVGLYTQCMGPSHLRGHNVAEVQKREFVCSGHQSFMAPSCSVLHCPAACTCSNNIVDCRGKGLTEIPTNLPETITEIRLEQNTIKVIPPGAFSPYKKLRRIDLSNNQISELAPDAFQGLRSLNSLVLYGNKITELPKSLFEGLFSLQLLLLNANKINCLRVDAFQDLHNLNLLSLYDNKLQTIAKGTFSPLRAIQTMHLAQNPFICDCHLKWLADYLHTNPIETSGARCTSPRRLANKRIGQIKSKKFRCSAKEQYFIPGTEDYRSKLSGDCFADLACPEKCRCEGTTVDCSNQKLNKIPEHIPQYTAELRLNNNEFTVLEATGIFKKLPQLRKINFSNNKITDIEEGAFEGASGVNEILLTSNRLENVQHKMFKGLESLKTLMLRSNRITCVGNDSFIGLSSVRLLSLYDNQITTVAPGAFDTLHSLSTLNLLANPFNCNCYLAWLGEWLRKKRIVTGNPRCQKPYFLKEIPIQDVAIQDFTCDDGNDDNSCSPLSRCPTECTCLDTVVRCSNKGLKVLPKGIPRDVTELYLDGNQFTLVPKELSNYKHLTLIDLSNNRISTLSNQSFSNMTQLLTLILSYNRLRCIPPRTFDGLKSLRLLSLHGNDISVVPEGAFNDLSALSHLAIGANPLYCDCNMQWLSDWVKSEYKEPGIARCAGPGEMADKLLLTTPSKKFTCQGPVDVNILAKCNPCLSNPCKNDGTCNSDPVDFYRCTCPYGFKGQDCDVPIHACISNPCKHGGTCHLKEGEEDGFWCICADGFEGENCEVNVDDCEDNDCENNSTCVDGINNYTCLCPPEYTGELCEEKLDFCAQDLNPCQHDSKCILTPKGFKCDCTPGYVGEHCDIDFDDCQDNKCKNGAHCTDAVNGYTCICPEGYSGLFCEFSPPMVLPRTSPCDNFDCQNGAQCIVRINEPICQCLPGYQGEKCEKLVSVNFINKESYLQIPSAKVRPQTNITLQIATDEDSGILLYKGDKDHIAVELYRGRVRASYDTGSHPASAIYSVETINDGNFHIVELLALDQSLSLSVDGGNPKIITNLSKQSTLNFDSPLYVGGMPGKSNVASLRQAPGQNGTSFHGCIRNLYINSELQDFQKVPMQTGILPGCEPCHKKVCAHGTCQPSSQAGFTCECQEGWMGPLCDQRTNDPCLGNKCVHGTCLPINAFSYSCKCLEGHGGVLCDEEEDLFNPCQAIKCKHGKCRLSGLGQPYCECSSGYTGDSCDREISCRGERIRDYYQKQQGYAACQTTKKVSRLECRGGCAGGQCCGPLRSKRRKYSFECTDGSSFVDEVEKVVKCGCTRCVS"}, "B2": {"name": "SLIT3 (protein, UniProt O75094 34-1523, looked up)", "Slit homolog 3 protein": "CPTKCTCSAASVDCHGLGLRAVPRGIPRNAERLDLDRNNITRITKMDFAGLKNLRVLHLEDNQVSVIERGAFQDLKQLERLRLNKNKLQVLPELLFQSTPKLTRLDLSENQIQGIPRKAFRGITDVKNLQLDNNHISCIEDGAFRALRDLEILTLNNNNISRILVTSFNHMPKIRTLRLHSNHLYCDCHLAWLSDWLRQRRTVGQFTLCMAPVHLRGFNVADVQKKEYVCPAPHSEPPSCNANSISCPSPCTCSNNIVDCRGKGLMEIPANLPEGIVEIRLEQNSIKAIPAGAFTQYKKLKRIDISKNQISDIAPDAFQGLKSLTSLVLYGNKITEIVKGLFDGLVSLQLLLLNANKINCLRVNTFQDLQNLNLLSLYDNKLQTISKGLFAPLQSIQTLHLAQNPFVCDCHLKWLADYLQDNPIETSGARCSSPRRLANKRISQIKSKKFRCSGSEDYRSRFSSECFMDLVCPEKCRCEGTIVDCSNQKLVRIPSHLPEYVTDLRLNDNEVSVLEATGIFKKLPNLRKINLSNNKIKEVREGAFDGAASVQELMLTGNQLETVHGRVFRGLSGLKTLMLRSNLIGCVSNDTFAGLSSVRLLSLYDNRITTITPGAFTTLVSLSTINLLSNPFNCNCHLAWLGKWLRKRRIVSGNPRCQKPFFLKEIPIQDVAIQDFTCDGNEESSCQLSPRCPEQCTCMETVVRCSNKGLRALPRGMPKDVTELYLEGNHLTAVPRELSALRHLTLIDLSNNSISMLTNYTFSNMSHLSTLILSYNRLRCIPVHAFNGLRSLRVLTLHGNDISSVPEGSFNDLTSLSHLALGTNPLHCDCSLRWLSEWVKAGYKEPGIARCSSPEPMADRLLLTTPTHRFQCKGPVDINIVAKCNACLSSPCKNNGTCTQDPVELYRCACPYSYKGKDCTVPINTCIQNPCQHGGTCHLSDSHKDGFSCSCPLGFEGQRCEINPDDCEDNDCENNATCVDGINNYVCICPPNYTGELCDEVIDHCVPELNLCQHEAKCIPLDKGFSCECVPGYSGKLCETDNDDCVAHKCRHGAQCVDTINGYTCTCPQGFSGPFCEHPPPMVLLQTSPCDQYECQNGAQCIVVQQEPTCRCPPGFAGPRCEKLITVNFVGKDSYVELASAKVRPQANISLQVATDKDNGILLYKGDNDPLALELYQGHVRLVYDSLSSPPTTVYSVETVNDGQFHSVELVTLNQTLNLVVDKGTPKSLGKLQKQPAVGINSPLYLGGIPTSTGLSALRQGTDRPLGGFHGCIHEVRINNELQDFKALPPQSLGVSPGCKSCTVCKHGLCRSVEKDSVVCECRPGWTGPLCDQEARDPCLGHRCHHGKCVATGTSYMCKCAEGYGGDLCDNKNDSANACSAFKCHHGQCHISDQGEPYCLCQPGFSGEHCQQENPCLGQVVREVIRRQKGYASCATASKVPIMECRGGCGPQCCQPTRSKRRKYVFQCTDGSSFVEEVERHLECGCLACS"}, "B3": {"name": "SNX4 (protein, UniProt O95219 1-450, looked up)", "Sorting nexin-4": "MEQAPPDPERQLQPAPLEPLGSPDAGLGAAVGKEAEGAGEESSGVDTMTHNNFWLKKIEISVSEAEKRTGRNAMNMQETYTAYLIETRSVEHTDGQSVLTDSLWRRYSEFELLRSYLLVYYPHIVVPPLPEKRAEFVWHKLSADNMDPDFVERRRIGLENFLLRIASHPILCRDKIFYLFLTQEGNWKETVNETGFQLKADSRLKALNATFRVKNPDKRFTDLKHYSDELQSVISHLLRVRARVADRLYGVYKVHGNYGRVFSEWSAIEKEMGDGLQSAGHHMDVYASSIDDILEDEEHYADQLKEYLFYAEALRAVCRKHELMQYDLEMAAQDLASKKQQCEELVTGTVRTFSLKGMTTKLFGQETPEQREARIKVLEEQINEGEQQLKSKNLEGREFVKNAWADIERFKEQKNRDLKEALISYAVMQISMCKKGIQVWTNAKECFSKM"}, "B4": {"name": "SPOCK3 (protein, UniProt Q9BQ16 22-436, looked up)", "Testican-3": "AAAAVAAAGGRSDGGNFLDDKQWLTTISQYDKEVGQWNKFRDEVEDDYFRTWSPGKPFDQALDPAKDPCLKMKCSRHKVCIAQDSQTAVCISHRRLTHRMKEAGVDHRQWRGPILSTCKQCPVVYPSPVCGSDGHTYSFQCKLEYQACVLGKQISVKCEGHCPCPSDKPTSTSRNVKRACSDLEFREVANRLRDWFKALHESGSQNKKTKTLLRPERSRFDTSILPICKDSLGWMFNRLDTNYDLLLDQSELRSIYLDKNEQCTKAFFNSCDTYKDSLISNNEWCYCFQRQQDPPCQTELSNIQKRQGVKKLLGQYIPLCDEDGYYKPTQCHGSVGQCWCVDRYGNEVMGSRINGVADCAIDFEISGDFASGDFHEWTDDEDDEDDIMNDEDEIEDDDEDEGDDDDGGDDHDVYI"}, "B5": {"name": "SPON1 (protein, UniProt Q9HCB6 29-807, looked up)", "Spondin-1": "FSDETLDKVPKSEGYCSRILRAQGTRREGYTEFSLRVEGDPDFYKPGTSYRVTLSAAPPSYFRGFTLIALRENREGDKEEDHAGTFQIIDEEETQFMSNCPVAVTESTPRRRTRIQVFWIAPPAGTGCVILKASIVQKRIIYFQDEGSLTKKLCEQDSTFDGVTDKPILDCCACGTAKYRLTFYGNWSEKTHPKDYPRRANHWSAIIGGSHSKNYVLWEYGGYASEGVKQVAELGSPVKMEEEIRQQSDEVLTVIKAKAQWPAWQPLNVRAAPSAEFSVDRTRHLMSFLTMMGPSPDWNVGLSAEDLCTKECGWVQKVVQDLIPWDAGTDSGVTYESPNKPTIPQEKIRPLTSLDHPQSPFYDPEGGSITQVARVVIERIARKGEQCNIVPDNVDDIVADLAPEEKDEDDTPETCIYSNWSPWSACSSSTCDKGKRMRQRMLKAQLDLSVPCPDTQDFQPCMGPGCSDEDGSTCTMSEWITWSPCSISCGMGMRSRERYVKQFPEDGSVCTLPTEETEKCTVNEECSPSSCLMTEWGEWDECSATCGMGMKKRHRMIKMNPADGSMCKAETSQAEKCMMPECHTIPCLLSPWSEWSDCSVTCGKGMRTRQRMLKSLAELGDCNEDLEQVEKCMLPECPIDCELTEWSQWSECNKSCGKGHVIRTRMIQMEPQFGGAPCPETVQRKKCRIRKCLRNPSIQKLRWREARESRRSEQLKEESEGEQFPGCRMRPWTAWSECTKLCGGGIQERYMTVKKRFKSSQFTSCKDKKEIRACNVHPC"}, "B6": {"name": "SRPX2 (protein, UniProt O60687 24-465, looked up)", "Sushi repeat-containing …": "TWYAGSGYYPDESYNEVYAEEVPQAPALDYRVPRWCYTLNIQDGEATCYSPKGGNYHSSLGTRCELSCDRGFRLIGRRSVQCLPSRRWSGTAYCRQMRCHALPFITSGTYTCTNGVLLDSRCDYSCSSGYHLEGDRSRICMEDGRWSGGEPVCVDIDPPKIRCPHSREKMAEPEKLTARVYWDPPLVKDSADGTITRVTLRGPEPGSHFPEGEHVIRYTAYDRAYNRASCKFIVKVQVRRCPTLKPPQHGYLTCTSAGDNYGATCEYHCDGGYDRQGTPSRVCQSSRQWSGSPPICAPMKINVNVNSAAGLLDQFYEKQRLLIISAPDPSNRYYKMQISMLQQSTCGLDLRHVTIIELVGQPPQEVGRIREQQLSANIIEELRQFQRLTRSYFNMVLIDKQGIDRDRYMEPVTPEEIFTFIDDYLLSNQELTQRREQRDICE"}},
  "data": [
    {"system": "HCV ORFs (Gal4-DB fusions)", "experiment": "not given", "type": "binding, HCV genotype 1b, isolate con1", "settings": "human protein listed by gene symbol; the value names the HCV protein it interacts with", "values": [
      {"molecule": "B1", "Interaction with viral protein": "NS3"},
      {"molecule": "B2", "Interaction with viral protein": "NS3"},
      {"molecule": "B3", "Interaction with viral protein": "NS3"},
      {"molecule": "B4", "Interaction with viral protein": "NS3"},
      {"molecule": "B5", "Interaction with viral protein": "NS3"},
      {"molecule": "B6", "Interaction with viral protein": "NS3"}
    ]},
    {"molecular_target": "T1, HCV ORFs (Gal4-DB fusions) (Hepatitis C virus genotype 1b, UniProt Q9WMX2)", "T1 construct": "expressed in transfected cells; host or cells: Saccharomyces cerevisiae MAV203 (IMAP1) / AH109 (IMAP2)", "experiment": "not given", "type": "binding, HCV genotype 1b, isolate con1", "settings": "HCV protein NS3 as bait; human protein as prey", "values": [
      {"molecule": "B1", "IMAP Y2H IMAP1 (number of IST)": 5},
      {"molecule": "B2", "IMAP Y2H IMAP1 (number of IST)": 4},
      {"molecule": "B3", "IMAP Y2H IMAP1 (number of IST)": 1},
      {"molecule": "B4", "IMAP Y2H IMAP1 (number of IST)": 1},
      {"molecule": "B5", "IMAP Y2H IMAP1 (number of IST)": 1},
      {"molecule": "B6", "IMAP Y2H IMAP1 (number of IST)": 1}
    ]},
    {"molecular_target": "T1, HCV ORFs (Gal4-DB fusions)", "experiment": "not given", "type": "binding, HCV genotype 1b, isolate con1", "settings": "HCV protein p7 as bait; human protein as prey", "values": [
      {"molecule": "B1", "IMAP Y2H IMAP1 (number of IST)": 1}
    ]},
    {"molecular_target": "T2, HCV proteins (Hepatitis C virus genotype 1b, UniProt Q9WMX2)", "T2 construct": "expressed in transfected cells", "experiment": "Validation by Y2H pairwise matrices;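 also: yeast two-hybrid pairwise tests of interactions first found in Y2H screens of HCV bait proteins against human cDNA libraries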", "type": "binding", "settings": "interaction with HCV protein p7", "description": "A comprehensive interactome map between HCV and cellular proteins was generated by Y2H screens. Twenty seven constructs encoding full-length HCV mature proteins or discrete domains were cloned using a recombination-based cloning system (10) (FIG. 6). Four independent screens were performed with each HCV bait protein, probing two distinct human cDNA libraries (Supplementary Methods). […] Two validation methods were used to assess the confidence of the IMAP Y2H dataset.", "values": [
      {"molecule": "B1", "Y2H matrices": "+"}
    ]},
    {"molecular_target": "T2, HCV proteins", "experiment": "Validation by Y2H pairwise matrices", "type": "binding", "settings": "validation of interaction with HCV protein NS3", "values": [
      {"molecule": "B1", "Y2H matrices": "+"},
      {"molecule": "B2", "Y2H matrices": "+"},
      {"molecule": "B3", "Y2H matrices": "+"},
      {"molecule": "B4", "Y2H matrices": "+"},
      {"molecule": "B5", "Y2H matrices": "+"},
      {"molecule": "B6", "Y2H matrices": "+"}
    ]}
  ]
}
